Columns and labels:
[1] = target: αEβ7 integrin (Homo sapiens (Human)) (UniProt P38570); test: blocking of E-cadherin binding to αEβ7; assay not described
[2] = target: α4β7 integrin (Homo sapiens (Human)) (UniProt P13612); test: blocking of α4β7 interactions with MadCAM-1, VCAM-1 and fibronectin (range told for the three ligands); assay not described
[3] = target: integrin β7 (β7 receptor) on cynomolgus monkey peripheral-blood T cells / lymphocytes (cynomolgus monkey (Macaca fascicularis)); test: β7 receptor occupancy by flow cytometry against serum concentration, dosed cynomolgus monkeys
[4] = target: integrin β7 (β7 receptor) on cynomolgus monkey peripheral-blood T cells / lymphocytes (cynomolgus monkey (Macaca fascicularis)); test: cell-based or functional assay

Chain of UniProt P38570 (P38570 19-1179 limits assumed, form in doubt, chain 1 of 2): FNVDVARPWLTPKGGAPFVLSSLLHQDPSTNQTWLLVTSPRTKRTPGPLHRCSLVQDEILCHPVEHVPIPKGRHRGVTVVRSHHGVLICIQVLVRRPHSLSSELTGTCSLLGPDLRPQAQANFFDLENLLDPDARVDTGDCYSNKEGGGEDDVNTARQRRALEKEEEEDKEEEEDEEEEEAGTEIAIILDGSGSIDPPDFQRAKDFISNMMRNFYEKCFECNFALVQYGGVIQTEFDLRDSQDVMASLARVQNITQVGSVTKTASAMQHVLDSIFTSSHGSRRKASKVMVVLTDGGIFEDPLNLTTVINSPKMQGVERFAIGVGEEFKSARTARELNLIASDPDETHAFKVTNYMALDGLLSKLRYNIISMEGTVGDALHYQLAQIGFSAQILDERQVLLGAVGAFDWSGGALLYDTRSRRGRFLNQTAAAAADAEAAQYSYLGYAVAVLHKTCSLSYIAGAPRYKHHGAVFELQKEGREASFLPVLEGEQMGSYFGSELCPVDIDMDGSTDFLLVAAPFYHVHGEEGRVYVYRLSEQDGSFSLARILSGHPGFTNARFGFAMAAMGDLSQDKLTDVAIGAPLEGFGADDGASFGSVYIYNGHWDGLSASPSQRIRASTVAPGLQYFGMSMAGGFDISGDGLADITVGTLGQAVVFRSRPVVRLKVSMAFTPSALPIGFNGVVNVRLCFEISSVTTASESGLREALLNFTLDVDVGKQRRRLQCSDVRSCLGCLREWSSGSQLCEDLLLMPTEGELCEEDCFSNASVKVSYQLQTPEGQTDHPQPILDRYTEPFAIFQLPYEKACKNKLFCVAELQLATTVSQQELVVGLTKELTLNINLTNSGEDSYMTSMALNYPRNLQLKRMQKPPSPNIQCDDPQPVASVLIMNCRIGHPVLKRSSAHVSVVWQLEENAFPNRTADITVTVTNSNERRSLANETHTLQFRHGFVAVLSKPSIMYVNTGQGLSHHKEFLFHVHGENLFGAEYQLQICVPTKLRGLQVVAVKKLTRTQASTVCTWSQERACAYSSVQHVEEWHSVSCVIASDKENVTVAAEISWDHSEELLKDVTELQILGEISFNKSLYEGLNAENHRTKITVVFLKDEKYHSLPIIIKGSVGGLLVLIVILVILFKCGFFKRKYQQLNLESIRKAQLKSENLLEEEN
Chain of UniProt P38570 (beta, as listed by the source limits assumed, form in doubt, chain 2 of 2): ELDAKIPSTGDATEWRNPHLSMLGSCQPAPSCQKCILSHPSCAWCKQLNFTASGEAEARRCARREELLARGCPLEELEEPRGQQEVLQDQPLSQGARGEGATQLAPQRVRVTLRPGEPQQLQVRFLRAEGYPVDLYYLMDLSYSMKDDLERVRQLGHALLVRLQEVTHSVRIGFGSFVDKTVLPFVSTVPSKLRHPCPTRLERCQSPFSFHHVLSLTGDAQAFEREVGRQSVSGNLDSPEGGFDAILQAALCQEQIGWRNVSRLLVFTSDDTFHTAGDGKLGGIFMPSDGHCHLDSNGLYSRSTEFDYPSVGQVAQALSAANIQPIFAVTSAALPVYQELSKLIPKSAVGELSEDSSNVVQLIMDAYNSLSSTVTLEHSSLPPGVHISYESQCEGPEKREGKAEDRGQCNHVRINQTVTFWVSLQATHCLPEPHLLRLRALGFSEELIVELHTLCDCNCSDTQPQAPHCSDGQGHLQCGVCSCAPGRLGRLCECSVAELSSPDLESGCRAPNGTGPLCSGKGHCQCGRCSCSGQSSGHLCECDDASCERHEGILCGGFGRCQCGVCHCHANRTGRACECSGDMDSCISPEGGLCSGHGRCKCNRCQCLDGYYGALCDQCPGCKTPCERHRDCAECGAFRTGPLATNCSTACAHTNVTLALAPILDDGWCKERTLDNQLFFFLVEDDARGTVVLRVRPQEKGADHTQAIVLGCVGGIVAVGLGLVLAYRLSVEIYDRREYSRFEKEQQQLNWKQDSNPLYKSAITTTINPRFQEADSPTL

B1: rhuMAb Beta7, recombinant humanized monoclonal anti-beta7 integrin antibody (antibody, from a related filing, V domains shown)
VH: EVQLVESGGGLVQPGGSLRLSCAASGFFITNNYWGWVRQAPGKGLEWVGYISYSGSTSYNPSLKSRFTISRDTSKNTFYLQMNSLRAEDTAVYYCARTGSSGYFDFWGQGTLVTVSS
VL: DIQMTQSPSSLSASVGDRVTITCRASESVDDLLHWYQQKPGKAPKLLIKYASQSISGVPSRFSGSGSGTDFTLTISSLQPEDFATYYCQQGNSLPNTFGQGTKVEIKR
**Q.** For B1, which IC50 [1] is on record?
**A.** 5 nM

**Q.** What about the IC50 [2] of the same binder?
**A.** 0.07 to 0.1 nM

**Q.** And the serum concentration that maintains complete β7-receptor saturation [3]?
**A.** 1 to 10 µg/mL

**Q.** What about the serum level below which available β7 is detected (desaturation) [3] of the same binder?
**A.** 10 µg/mL

**Q.** And the CD45RA+ β7intermediate T cells in peripheral blood, increase over baseline, four weekly doses of 25 mg/kg, cynomolgus monkeys [4]?
**A.** 2.5 fold

**Q.** And the CD45RA- β7high T cells in peripheral blood, increase over baseline, four weekly doses of 25 mg/kg, cynomolgus monkeys [4]?
**A.** 5 fold

**Q.** And the group mean CD45RA- β7high CD4+ lymphocytes in peripheral blood, increase over baseline, 5 mg/kg IV weekly, cynomolgus monkeys [4]?
**A.** 4 to 5 fold

**Q.** What about the group mean CD45RA- β7high CD4+ lymphocytes in peripheral blood, increase over baseline, 15 or 50 mg/kg IV or SC weekly, cynomolgus monkeys [4] of the same binder?
**A.** 5 to 6 fold
